Read-outs that look alike come from different tables or passages of the source.
Legend:
[1] = tested on: MDA-MB231 tumor xenografts; experiment: In vivo fluorescence imaging and biodistribution, MDA-MB231 xenografts
Procedure: (§1) In vivo fluorescence imaging and biodistribution. For the development of subcutaneous tumor xenografts, MDA-MB231, OVCAR-3 and HEC-1B 5×10^6 cells in 0.2 ml sterile PBS were injected subcutaneously in the right hind flank of the female nu/nu mice. Tumor imaging was initiated once the tumor volume reached between 200 mm^3 to 300 mm^3. Each tumor-bearing mice was intravenously injected (via tail vein) with the 10 nano moles of fluorescence dye conjugate either in the presence or absence of a 100-fold excess of the unlabeled conjugate. Animals were euthanized two hours post injection using CO2 and the images were acquired using Caliper IVIS Luminal II. After performing the whole body image, the organs of interest were harvested and imaged to inspect the accumulation of the fluorescence in these organs. The image acquisition parameters were as follows: i) lamp level-high, ii) excitation-745 nm, iii) emission-ICG, iv) binning (M) 4M, (v) f-stop-4, (vi) FOV-12.5, (vii) acquisition time, 1 s. All final conjugates were purified by HPLC prior to its use in in-vitro and in vivo studies.
To determine the efficiency of the conjugates to target the receptor positive tumor in vivo female nu/nu athymic nude mice were subcutaneously implanted with either MCF7, MDA-MB231, OVCAR3 or HEC-1B. Once the tumor reached an appropriate volume the mice were injected intravenously with the dye conjugates (10 nmoles) either in the presence or absence of the excess of the unlabeled targeting molecule. Mice were imaged 2 h post injection to investigate the accumulation of the dye conjugates in tumor and other vital organs.
(§2) Mice were treated intravenously with the dye conjugate either in the presence or absence of 100-fold excess of the unlabeled conjugates. […] All the images were acquired 2 h post injection. List of organs from top to bottom: Tumor, heart, lungs, pancreas, spleen, muscle, skin, small intestine, large intestine, stomach, liver, and kidney.
as §2, with “Tumor, brain,” for “Tumor,”, “stomach,” for “pancreas, spleen, muscle, skin,”, “muscle, pancreas, spleen,” for “stomach,”
Time course study. The effectiveness of JL-L3-S0456 to accumulate in the receptor-positive tumors were further inspected by injection the dye conjugate in ovarian cancer and endometrial xenografts. […] To investigate the retention time of the dye conjugate in the tumor a time-course study was performed. Mice were injected with 10 nmoles of the dye conjugates and imaged at 2 h, 8 h, and 12 h.

HEC-1B tumor xenografts = settings: endometrial xenografts, 2 h post injection
Procedure: as §1
(§3) To determine the efficiency of the conjugates to target the receptor positive tumor in vivo female nu/nu athymic nude mice were subcutaneously implanted with either MCF7, MDA-MB231, OVCAR3 or HEC-1B. […]

OVCAR3 tumor xenografts = settings: ovarian cancer xenografts, 2 h post injection
Procedure: as §1, §3

MDA-MB-231 tumors = experiment: In vivo efficacy of tubulysin B hydrazide conjugate, LHRH-R positive tumors; design: species or system mice
Procedure: (§4) Tumor model and therapy: 5-6 weeks old female nu/nu athymic nude mice were subcutaneously injected with 5.0×10^6 breast cancer cells MDA-MB231 and ovarian cancer cells SKVO3 into their shoulders. Tumors were measured in two perpendicular directions 3 times per week with Vernier calipers, and their volumes were calculated as 0.5×L×W^2, where L is the longest axis (in millimeters), and W is the axis perpendicular to L (in millimeters). Treatment was initiated once the tumor volume reached ˜100 mm^3. Dosing solutions were prepared in sterile saline and injected intravenously. […] Mice were administered with the test agents 3 times per week for 3 weeks and as a measure of gross toxicity mice were simultaneously weighed at each dosing.
In vivo efficacy of tubulysin B hydrazide conjugate: To investigate the efficacy of JL tubulysin conjugate nu/nu athymic nude bearing LHRH-R positive tumors (MDA-MB-231, breast cancer) were randomly divided into three groups: saline control, targeted, and competition and were then treated with test agents 3 days per week for 3 weeks. LHRH-R positive (MDA-MB-231) and negative (SKOV3) cancer cells were s.c implanted in to nu/nu athymic mice and treatment was initiated once the tumor volume reached ˜100 mm^3. Mice were randomized into several groups with 5 mice in each group. […] All the test agents were administered intravenously through tail vein. The mice in control and competition group were euthanized after the last doing whereas the mice in treatment group were continuously monitored for recurrence of tumor and weight loss. […] (FIG. 22A, The dotted vertical line indicates the day of final dosing (day 36)) Without intending to be bound by theory, this further confirmed that the efficacy of targeted tubulysin B hydrazide conjugate is receptor mediated. Moreover, to comprehensively test the anti-tumor efficacy of targeted conjugate (JL-L3-TubBH), mice bearing LHRH-R negative tumors (SKOV3, ovarian cancer) were divided into similar groups as MDA-MB-231 tumor bearing mice and a similar treatment regimen was followed. […] (FIGS. 22B & 22D)
After completion of the treatment the mice in MDA-MB-231 targeted group were monitored and kept on regular chow diet for next five weeks. During this time period the tumor volume and weight was monitored three time a week. (FIG. 23) Mice were treated with the LHRH-R targeted tubulysin B hydrazide conjugate (JR-L3-TubBH) for thrice a week for 3 weeks (n=5). After completion of the study tumor volume and weight of mice was continuously monitored till 75 days post tumor implantation. The dotted vertical line specifies the last day of dosing.

SKOV3 tumors = experiment: In vivo efficacy of tubulysin B hydrazide conjugate, LHRH-R negative tumors; design: species or system mice; settings: 2 μmol/kg i.v., 3 times per week for 3 weeks
Procedure: as §4
In vivo efficacy of tubulysin B hydrazide conjugate: To investigate the efficacy of JL tubulysin conjugate nu/nu athymic nude bearing LHRH-R positive tumors (MDA-MB-231, breast cancer) were randomly divided into three groups: saline control, targeted, and competition and were then treated with test agents 3 days per week for 3 weeks. […] The mice in control and competition group were euthanized after the last doing whereas the mice in treatment group were continuously monitored for recurrence of tumor and weight loss. […]

SKOV3 cells = format: cell-based, human; settings: receptor negative cell line, 2 h exposure + 66 h
Procedure: (§5) In vitro determination of cell viability. MDA-MB231 and SKVO3 cells were seeded at a concentration of 10,000 cells per well on a 24 well plate and allowed to grow in monolayers. […] After incubating for 2 h at 37° C., cells were rinsed three times with fresh medium and then incubated in 0.5 ml fresh medium for an additional 66 h at 37° C. Sent medium was then replaced with 0.5 ml of medium containing ^3H-thymidine and incubated for additional 4 h. Cells were then again washed three times with the fresh medium and then incubated with 0.5 ml of 2.5% trichloroacetic acid for 10 min at room temperature. After removing the trichloroacetic acid, cells were dissolved in 0.25 N NaOH. Cell viability was determined by counting the incorporation of ^3H-thymidine in cells using scintillation counter (Packard, Packard Instrument Company). The IC50 value was derived from a plot of the percent of ^3H-thymidine incorporation versus log concentration using Graph Pad Prism 4.
(§6) In vitro cytotoxicity of tubulysin B hydrazide conjugate: To inspect the killing efficiency of the therapeutic conjugate, MDA-MB231 and SKOV3 cancer cells were incubated with various concentrations of JL-L3-TubBH either in the presence or absence of excess JL-L3, for 2 h at 37° C. After washing off the excess conjugate, the cells were incubated in fresh media for an additional 66 h followed by incubation with media containing ^3H-thymidine to assess cell viability. Radioactivity was counted using PerkinElmer's scintillation counter. The same procedure was repeated after exposing the cells to the free tubulysin B hydrazide.

MDA-MB231 cells = format: cell-based, human; settings: 2 h exposure + 66 h
Procedure: as §5, §6

[2] = 10 nmoles i.v., 2 h post injection
[3] = 2 μmol/kg i.v., 3 times per week for 3 weeks
[4] = monitored five weeks after treatment, till 75 days post tumor implantation

## Cc1c(-c2cccc(CCC(=O)NCCCCCCCC(=O)N[C@H](CCC(=O)NC[C@H](O)[C@@H](O)[C@H](O)[C@H](O)CO)C(=O)N[C@H](CCC(=O)O)C(=O)N[C@H](CCC(=O)NC[C@H](O)[C@@H](O)[C@H](O)[C@H](O)CO)C(=O)N[C@H](CSC3CC(=O)N(CCNC(=O)CCc4ccc(OC5=C(/C=C/C6=[N+](CCCCS(=O)(=O)O)c7ccc(S(=O)(=O)[O-])cc7C6(C)C)CCC/C5=C\C=C5\N(CCCCS(=O)(=O)O)c6ccc(S(=O)(=O)O)cc6C5(C)C)cc4)C3=O)C(=O)O)c2)c(=O)n(C[C@@H](N)c2ccccc2)c(=O)n1Cc1c(F)cccc1F (some centres unmarked) [JL-L3-S0456]
[1]; [2]
  Kidney fluorescence: high fluorescence
  Liver fluorescence: none or very minimal fluorescence
  Tumor uptake: accumulated in the breast cancer tumor
[1]; 100-fold excess of unlabeled conjugate, 2 h post injection
  Competition of tumor uptake by unlabeled JL-L3: able to compete the tumor uptake
[1]; time course, 10 nmoles, imaged at 2 h, 8 h, 12 h
  Tumor fluorescence intensity at 12 h compared with 2 h post injection: only a very slight decrease in the intensity
HEC-1B tumor xenografts
  Tumor uptake: receptor-mediated uptake
OVCAR3 tumor xenografts
  Tumor uptake: receptor-mediated uptake

## CCCC(=O)OCN(C(=O)[C@@H](NC(=O)C1CCCCN1C)C(C)CC)[C@H](C[C@@H](OC(C)=O)c1nc(C(=O)N[C@@H](Cc2ccc(O)cc2)C[C@H](C)C(=O)NNC(=O)OCCSSC[C@@H](NC(=O)[C@@H](CCC(=O)NC[C@H](O)[C@@H](O)[C@H](O)[C@H](O)CO)NC(=O)[C@@H](CCC(=O)O)NC(=O)[C@@H](CCC(=O)NC[C@H](O)[C@@H](O)[C@H](O)[C@H](O)CO)NC(=O)CCCCCCCNC(=O)CCc2cccc(-c3c(C)n(Cc4c(F)cccc4F)c(=O)n(C[C@@H](N)c4ccccc4)c3=O)c2)C(=O)O)cs1)C(C)C (some centres unmarked) [JL-L3-TubBH]
MDA-MB-231 tumors; 2 μmol/kg i.v. with 100-fold excess of JL-L3, 3 times per week for 3 weeks
  Anti-tumor effect (tumor volume), competition group: did not show any decline in tumor growth
MDA-MB-231 tumors; [3]
  Anti-tumor effect (tumor volume): complete elimination of the tumor
  Body weight loss (gross toxicity): None of the mice either bearing MDA-MB-231 or SKVO3 experiences significant weight loss
MDA-MB-231 tumors; [4]
  Tumor growth after end of treatment: None of the mice showed any indication of tumor growth and weight loss
  Weight loss after end of treatment: None of the mice showed any indication of tumor growth and weight loss
SKOV3 tumors
  Body weight loss (gross toxicity): None of the mice either bearing MDA-MB-231 or SKVO3 experiences significant weight loss
SKOV3 tumors; receptor negative tumors
  Anti-tumor effect (tumor volume): no reduction in tumor volume
SKOV3 cells
  IC50: 608 nM
MDA-MB231 cells; 3H-thymidine incorporation, read-out: IC50
  IC50: 26 nM
MDA-MB231 cells; excess JL-L3 (100-fold), read-out: IC50 in the presence of an excess of competition ligand
  IC50: 382 nM
